Laboratory results taken from US11433139B2, “Peptide vaccines against interleukin-31” (Zoetis Services LLC, priority 2018, dated 2022).

How the values were obtained:
[1] = system: feline IL-31 15H05 mutant; assay: Indirect ELISA, binding to feline IL-31 15H05 mutant; details: compared with wildtype
Description: (§1) Mice and dogs were immunized with recombinant canine IL-31 (SEQ ID No. 155) for the purpose of identifying antibodies. Serum antibody titers from immunized animals were determined using an enzyme linked immunosorbent assay (ELISA). Canine or feline IL-31 (50 ng/well) was immobilized to polystyrene microplates and used as a capture antigen. Serum from immunized animals was diluted in phosphate buffered saline with 0.05% tween-20 (PBST). The presence of anti-IL-31 antibodies was detected with an appropriate secondary HRP labeled antibody. Following addition of a chromogenic substrate (SureBlue Reserve TMB 1-Component Microwell Peroxidase Substrate, KPL, Inc., Gaithersburg, Md.) and a ten minute incubation at room temperature (RT) the reaction was stopped with the addition of […] of 0.1 N HCl. The absorbance of each well was determined at an optical density (OD) of 450 nm. Antibodies were selected for their ability to bind canine and feline IL-31 using an ELISA. In some cases, further characterization was performed at the time of selection using an ELISA with a mutant form of the feline IL-31 protein as a capture antigen. Cells producing antibodies with desired binding and inhibitory properties were chosen for sequence analysis of RNA transcripts representing the variable heavy (VH) and variable light (VL) IgG chains.
(§2) For the indirect ELISA method, antibody binding to wildtype and feline IL-31 15H05 mutant proteins was assessed. […] In comparison, the 11E12 antibody bound to the wild-type feline IL-31 and its binding was not impacted by the mutations in the 15H05 epitope region as evidenced by the data in FIG. 4. To confirm binding, biacore analysis was performed using canine, feline, equine, human, feline 15H05 mutant, and feline 11E12 mutant IL-31 proteins as surfaces and a single test concentration of antibody. Similar to ELISA observations, all antibodies tested bound to wildtype feline IL-31. In agreement with the data described above in this section, mouse antibodies 11 E12 and 15H05 both bound to canine and feline IL-31 surfaces. […] From this group of nine fully canine antibodies, only ZIL1 and ZIL9 cross-reacted with equine IL-31. Of note, antibody 15H05 was the only one of all assayed herein that bound to canine, feline, and equine IL-31 indicating some level of epitope conservation across the three species. In contrast, none of the antibodies described herein bound to human IL-31. Additional biacore surfaces were used to verify ELISA observations showing differential binding of antibodies to wildtype feline IL-31 and two proteins with mutations in the 15H05 (15H05 mutant) or 11 E12 (11E12 mutant) epitopes. […] Differing results can be attributed to differences in the two assay methodologies.
(§3) To determine the impact of mAbs 11E12 and 15H05 ability to bind these mutant forms of feline IL-31, an indirect ELISA was run using the mutants directly coated on to an immunoassay plate. […] The minor attenuation of mAb 15H05s binding to the 11E12 mutant is likely due to translational effects of the mutations from movement of the two front helices effecting the 15H05 binding site. The mutations designed to affect mAb 15H05s binding (mutant 15H05) show a complete loss of mAb 1505s ability to bind this IL-31 mutant by ELISA. Unlike the 11E12 mutant, the changes in the random coil recognized by mAb 15H05 (mutant 15H05) had no impact on mAb 11E12 binding further supporting the distinction between the two epitopes (FIG. 6C).

canine IL-31 [2] = assay: Biacore binding, single test concentration of antibody, canine IL-31 surface
Sequence of canine IL-31 (as listed by the source): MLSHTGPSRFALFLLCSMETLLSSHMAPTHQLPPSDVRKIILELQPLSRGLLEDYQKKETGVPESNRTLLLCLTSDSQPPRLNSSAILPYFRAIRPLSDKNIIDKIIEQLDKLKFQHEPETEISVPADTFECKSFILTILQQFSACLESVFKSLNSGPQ
Description: (§4) For the indirect ELISA, binding (ELISA OD) to wildtype feline IL-31 and a feline IL-31 15H05 mutant which had mutations in the monoclonal antibody 15H05 epitope region was assessed. To confirm binding, biacore analysis was performed using canine, feline, equine, human, the feline 15H05 mutant, and feline 11E12 mutant IL-31 proteins as surfaces and a single test concentration of antibody. The feline IL-31 11E12 mutant had mutations in the monoclonal antibody 11E12 epitope region.
as §2

wildtype feline IL-31 = assay: Indirect ELISA, binding to wildtype feline IL-31
Sequence of wildtype feline IL-31 (as listed by the source): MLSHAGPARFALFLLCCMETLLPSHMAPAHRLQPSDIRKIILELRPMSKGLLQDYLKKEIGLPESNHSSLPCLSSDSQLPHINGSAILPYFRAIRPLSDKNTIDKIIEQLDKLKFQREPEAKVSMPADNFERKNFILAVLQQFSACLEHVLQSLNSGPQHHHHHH
Description: as §1, §2, §3

[3] = system: feline 15H05 mutant IL-31; assay: Biacore binding, single test concentration of antibody, feline 15H05 mutant IL-31 surface
Description: as §4, §2

feline IL-31 [4] = assay: IL-31 induced pruritus model in cats, antibody pre-bound to feline IL-31; type: in vivo, cat; details: 0.5 mg/kg antibody pre-bound with 0.5 μg/kg feline IL-31, days 0, 7, 21
Description: To test the preliminary efficacy of mouse: feline 11E12 chimera, mouse: feline 15H05 chimera, and felinized 11 E12 (Feline 11E12 1.1), an IL-31 induced pruritus model in cats was developed. Following an intravenous dose of 0.5 μg/kg feline IL-31 (SEQ ID NO: 159; Feline_IL-31_E_coli), the corresponding nucleotide sequence for which is (SEQ ID NO: 160; Feline_IL-31_E_coli), cats will portray transient pruritic behavior that includes (but is not limited to) licking, chewing, scratching, and head or body shaking. Rubbing up against the cage was not considered a pruritic activity. Pruritic observations take place by a trained investigator for 30 minutes prior to administration of the IL-31 protein and for 1 hour following. For this study, a baseline challenge with feline IL-31 was performed up to 1 month prior to dosing with antibody. On day zero, a 0.5 mg/kg antibody dose was combined with 0.5 μg/kg of feline IL-31 at room temperature for 60 minutes prior to injecting the pre-bound complex into each animal. A “no mAb” control was included for a control. The dose of mAb represents a gross molar excess of antibody to cytokine. Pruritic activity was monitored as described on days 0, 7, and 21.
Target sequence in this assay (as listed by the source): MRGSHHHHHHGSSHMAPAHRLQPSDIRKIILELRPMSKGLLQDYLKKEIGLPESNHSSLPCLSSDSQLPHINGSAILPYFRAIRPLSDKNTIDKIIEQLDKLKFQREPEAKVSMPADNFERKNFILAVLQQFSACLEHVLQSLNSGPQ

canine IL-31 [5] = assay: Affinity of anti-IL-31 antibodies by surface plasmon resonance (Biacore), canine IL-31 surface; type: binding; details: IL-31 conjugated to the surface (FIG. 2)
Description: (§5) The affinity with which candidate mAbs bind canine and feline IL-31 was determined using surface plasmon resonance (SPR) on a Biacore system (Biocore Life Sciences (GE Healthcare), Uppsala, Sweden). To avoid affinity differences associated with differential surface preparation that can occur when immobilizing antibodies to surfaces; a strategy was employed where IL-31 was directly conjugated to the surface. Immobilization was obtained by amine coupling 5 μg/mL IL-31 using N-hydroxysuccinimide (NHS)/1-Ethyl-3-(3-dimethylaminopropyl) carbodiimide (EDC) chemistry. Chips were quenched with ethanolamine and the affinity with which all candidate mAbs bound to the immobilized IL-31 was evaluated. All curves were fit to a 1:1 model. Affinity constants (KD) less than 1×10^−11M (1E-11 M) are below the lower limit of quantitation of detection for the instrument. Results for affinity measurements are described herein.

feline IL-31 [6] = assay: Affinity of anti-IL-31 antibodies by surface plasmon resonance (Biacore), feline IL-31 surface; type: binding; details: IL-31 conjugated to the surface (FIG. 2)
Description: as §5

[7] = system: feline 11E12 mutant IL-31; assay: Biacore binding, single test concentration of antibody, feline 11E12 mutant IL-31 surface
Sequence of feline 11E12 mutant IL-31 (as listed by the source, change not shown): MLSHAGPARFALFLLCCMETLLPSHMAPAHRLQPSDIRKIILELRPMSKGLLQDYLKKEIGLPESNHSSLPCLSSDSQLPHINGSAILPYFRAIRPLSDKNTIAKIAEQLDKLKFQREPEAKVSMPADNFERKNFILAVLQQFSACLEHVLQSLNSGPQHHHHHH
Description: as §4, §2

Sequence of feline IL-31 15H05 mutant (as listed by the source, change not shown): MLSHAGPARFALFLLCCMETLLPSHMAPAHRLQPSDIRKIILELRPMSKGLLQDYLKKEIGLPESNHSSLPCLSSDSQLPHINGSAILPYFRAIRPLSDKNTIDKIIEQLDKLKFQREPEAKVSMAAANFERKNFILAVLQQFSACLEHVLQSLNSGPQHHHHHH

| Molecule | binding to feline IL-31 15H05 mutant (ELISA) [1] | binding to canine IL-31 (Biacore) (canine IL-31 [2]) | binding to wildtype feline IL-31 (ELISA) (wildtype feline IL-31) | binding to feline 15H05 mutant IL-31 (Biacore) [3] | pruritus scores compared to placebo control (feline IL-31 [4]) | affinity (KD) to canine IL-31 (canine IL-31 [5]) | affinity (KD) to feline IL-31 (feline IL-31 [6]) | binding to feline 11E12 mutant IL-31 (Biacore) [7] |
| --- | --- | --- | --- | --- | --- | --- | --- | --- |
| ZIL94: fully canine anti IL-31 antibody, VH SEQ ID NO: 95, VL SEQ ID NO: 97 (antibody, listed as Canis familiaris, V domains shown) VH: EVQLVDSGGDLVKPGGSLRLSCVASGFTFSTYFMSWVRQAPGRGLQWVALISSDGSGTYYADAVKGRFTISRDNAKNTLYLQMNSLRAEDTAMYYCAIFWRAFNDWGQGTLVTVSS VL: QTVVIQEPSLSVSPGGTVTLTCGLNSGSVSTSNYPGWYQQTRGRTPRTIIYDTGSRPSGVPNRFSGSISGNKAALTITGAQPEDEADYYCSLYTDSDILVFGGGTHLTVL | binding was impacted | dual binding property | capable of binding |  |  |  |  |  |
| ZIL69: fully canine anti IL-31 antibody, VH SEQ ID NO: 91, VL SEQ ID NO: 93 (antibody, listed as Canis familiaris, V domains shown) VH: EVQLVESGGDLVKPAGSLRLSCVASGFTFSSYAMKWVRQAPGKGLQWVATINNDGTRTGYADAVRGRFTISKDNAKNTLYLQMDSLRADDTAVYYCTKGNAESGCTGDHCPPYWGQGTLVTVSS VL: SSVLTQPPSVSVSLGQTATISCSGESLNKYYAQWFQQKAGQAPVLVIYKDTERPSGIPDRFSGSSAGNTHTLTISGARAEDEADYYCESAVSSETNVFGSGTQLTVL | binding was impacted | partial canine binding | capable of binding |  |  |  |  |  |
| ZIL171: fully canine anti IL-31 antibody, VH SEQ ID NO: 107, VL SEQ ID NO: 109 (antibody, listed as Canis familiaris, V domains shown) VH: EVQLVESGGDLVKPAGSLRLSCVASGFTFRTYVMNWVRQAPGKGLQWVASINGGGSSPTYADAVRGRFTVSRDNAQNSLFLQMNSLRAEDTAIYFCVVSMVGPFDYWGHGTLVTVSS VL: SSVLTQPPSVSVSLGQTATISCSGKSLSYYYAQWFQQKAGQAPVLVIYKDTERPSGIPDRFSGSSSGNTHTLTISGARAEDEADYYCESAVSSDTIVFGGGTHLTVL | binding was impacted |  | capable of binding | partially affected |  |  |  |  |
| mouse: feline 11E12 chimera: mouse 11E12 variable regions on feline IgG constant regions (antibody) heavy: QVQLQQSGAELVKPGASVKLSCKASGYTFKYYDINWVRQRPEQGLEWIGWIFPGDGGTKYNETFKGKATLTTDKSSSTAYMQLSRLTSEDSAVYFCARGGTSVIRDAMDYWGQGTSVTVSSASTTAPSVFPLAPSCGTTSGATVALACLVLGYFPEPVTVSWNSGALTSGVHTFPAVLQASGLYSLSSMVTVPSSRWLSDTFTCNVAHPPSNTKVDKTVRKTDHPPGPKPCDCPKCPPPEAAGAPSIFIFPPKPKDTLSISRTPEVTCLVVDLGPDDSDVQITWFVDNTQVYTAKTSPREEQFNSTYRVVSVLPILHQDWLKGKEFKCKVNSKSLPSPIERTISKAKGQPHEPQVYVLPPAQEELSRNKVSVTCLIKSFHPPDIAVEWEITGQPEPENNYRTTPPQLDSDGTYFVYSKLSVDRSHWQRGNTYTCSVSHEALHSHHTQKSLTQSPGK light: DIVLTQSPASLAVSLGQRATISCRASESVDNYGISFMHWYQQKPGQPPKLLIYRASNLESGIPARFSGSGSRTDFTLTINPVETDDVATYYCQQSNKDPLTFGAGTKLELKRSDAQPSVFLFQPSLDELHTGSASIVCILNDFYPKEVNVKWKVDGVVQNKGIQESTTEQNSKDSTYSLSSTLTMSSTEYQSHEKFSCEVTHKSLASTLVKSFQRSECQRE |  |  |  |  | did not achieve a significant reduction in pruritus at any timepoint | slightly superior | slightly superior |  |
| ZIL8: fully canine anti IL-31 antibody, VH SEQ ID NO: 79, VL SEQ ID NO: 81 (antibody, listed as Canis familiaris, V domains shown) VH: EVQLVESGGDLVKPAGSLRLSCVASGFTFSDYAMSWVRQAPGRGLQWVAGIDSVGSGTSYADAVKGRFTISRDDAKNTLYLQMFNLRAEDTAIYYCASGFPGSFEHWGQGTLVTVSS VL: QSVLTQPASVSGSLGQKVTISCTGSSSNIGSGYVGWYQQLPGTGPRTLIYYNSDRPSGVPDRFSGSRSGTTATLTISGLQAEDEADYYCSVYDRTFNAVFGGGT | binding was impacted |  | capable of binding |  |  |  |  | impacted |
| ZIL159: fully canine anti IL-31 antibody, VH SEQ ID NO: 103, VL SEQ ID NO: 105 (antibody, listed as Canis familiaris, V domains shown) VH: EVQLVESGGDLVKPAGSLRLSCVASGFTFSSYVMTWVRQAPGKGLQWVAGINSEGSRTAYADAVKGRFTISRDNAKNTLYLQIDSLRAEDTAIYYCATGDIVATGTSYWGQGTLVTVSS VL: SNVLTQPPSVSVSLGQTATISCSGETLNRFYTQWFQQKAGQAPVLVIYKDTERPSGIPDRFSGSSSGNIHTLTISGARAEDEAAYYCKSAVSIDVGVFGGGTHLTVF | binding was impacted | dual binding property | capable of binding |  |  |  |  | impacted |
